Test results taken from paper PMC7793522.

Target: synthetic peptide on H-2Kb (mouse)
Experiment: data from [108]; method not given; soluble, other

Q: For YAe62, which Kd is on record?
A: 15 µM
